The text below walks through data of publication doi:10.1101/2024.11.27.625426 (bioRxiv, 2024).

The target in the assay is unmodified NA of A/Vietnam/1203/2004 (VN04, H5N1) (Influenza A virus A/Vietnam/1203/2004 …, UniProt Q6DPL2). Briefly: ELISA. Particulars: both partners purified. In general terms: In an ELISA, binding on a coated surface is turned into a signal by an enzyme label.

B1: NCS.1.1 mAb (IgG) (antibody, V domains shown)
VH: QVQLQESGPRLVKPSETLSLTCSVSGESISSGGYYWTWIRQHPGKGLEWIGNIFDTGSTDYSPSLKTRLTISIDTSKNQFYLRLNSATAADTAVYYCARVGFSLETDRPYYLGLDVWGQGTTVTVSS
VL: DIVMTQSPLSLPVTPGEPASISCRSSQSLLHSNGYTYLDWYLQKPGQSPQLLISFTSNRASGVPDRFSGSGSGTYFTLKISRVEAEDVGVYYCMQAVQTPWTFGQGTKVEIK
notes: copies: 2 + 2
With B1, the binding result is recorded as “binds”.

B2: NCS.1.3 mAb (IgG) (antibody, V domains shown)
VH: QVQLQESGPRLVKPSETLSLTCSVSGESISSGGYYWTWIRQHPGKGLEWIGNIFDTGSTDYSPSLKTRLTISIDTSKNQFYLRLTSATAADTAVYYCARVGFSLETDRPYYLGLDVWGQGTTVTVSS
VL: DIVMTQSPLTLPVTPGEPASISCRSSQSLLHSNGYTYLDWYLQKPGQSPQLLIYFASNRASGVPDRFSGSGSGTYFTLKISRVEAEDVGVYYCMQAVQSPWTFGQGTKVEIK
notes: copies: 2 + 2
As for B2, the binding result was “binds”.
